Assay results taken from patent US20020137113A1.

B1: neurotrophin 5 (NT5) (ligand, UniProt P34130 81-210, looked up)
chain: GVSETAPASRRGELAVCDAVSGWVTDRRTAVDLRGREVEVLGEVPAAGGSPLRQYFFETRCKADNAEEGGPGAGGGGCRGVDRRHWVSECKAKQSYVRALTADAQGRVGWRWIRIDTACVCTLLSRTGRA
B2: neurotrophin 3 (NT3) (ligand, UniProt P20783 139-257, looked up)
chain: YAEHKSHRGEYSVCDSESLWVTDKSSAIDIRGHQVTVLGEIKTGNSPVKQYFYETRCKEARPVKNGCRGIDDKHWNSQCKTSQTYVRALTSENNKLVGWRWIRIDTSCVCALSRKIGRT

Tests used:
[1] = target: gD.trkB.IgG (gD tagged trkB.IgG fusion protein) (Herpes simplex virus; human) (UniProt Q16620); assay: competitive displacement of iodinated NT5 from gD tagged trkB.IgG in 293 cell supernatant
[2] = target: trkC.IgG (untagged trk.IgG fusion of the trkC extracellular domain and IgG-1 Fc) (human) (UniProt Q16288); assay: competitive displacement of iodinated NT3 from trkC.IgG in 293 cell supernatant
[3] = target: gD.trkC.IgG (gD tagged trkC.IgG fusion protein) (Herpes simplex virus; human) (UniProt Q16288); assay: competitive displacement of iodinated NT3 from gD tagged trkC.IgG in 293 cell supernatant

| Binder | IC50 [1] | IC50 [2] | IC50 [3] |
| --- | --- | --- | --- |
| B1 | 0.0121 nM |  |  |
| B2 |  | 0.0311 nM | 0.0302 nM |
